Results: article PMC7483680 (Experimental parasitology, 2020)

Target: T1, recombinant GST-tagged wild-type Toxoplasma gondii GCN5b bromodomain (BRD) (Toxoplasma gondii, UniProt S8F3V2 877-986)
T1 sequence (looked up): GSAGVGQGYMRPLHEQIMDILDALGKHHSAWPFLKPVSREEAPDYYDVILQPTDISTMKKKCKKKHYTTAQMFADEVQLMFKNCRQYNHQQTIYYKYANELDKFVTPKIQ
Assay: pull-down

SGRGKGGKGLGKGGAKRH (peptide, UniProt P62805 2-19, looked up, acetyl-lysine at K5, K8, K12 and K16; biotin (position not given)) [biotinylated tetra-acetylated histone H4 peptide (K5/8/12/16), residues 1-18 of human histone H4]
binding result: binds
